# Assay results as given in patent publication US20180094075A1 (Pfizer, published 2018).
# Assays:
# [1] = target: human PTK7 expressed on cells (cancer cell lines with endogenous PTK7; HEK293T-PTK7 over-expressing cells) (human) (UniProt Q13308); test: flow cytometry, RL cells, 10 µg/ml Ab
# [2] = target: human PTK7 expressed on cells (cancer cell lines with endogenous PTK7; HEK293T-PTK7 over-expressing cells) (human) (UniProt Q13308); test: flow cytometry, H69 cells, 10 µg/ml Ab
# [3] = target: human PTK7 expressed on cells (cancer cell lines with endogenous PTK7; HEK293T-PTK7 over-expressing cells) (human) (UniProt Q13308); test: flow cytometry, KG1 cells, 10 µg/ml Ab
# [4] = target: human PTK7 expressed on cells (cancer cell lines with endogenous PTK7; HEK293T-PTK7 over-expressing cells) (human) (UniProt Q13308); test: flow cytometry, NB4 cells, 10 µg/ml Ab
# [5] = target: human PTK7 expressed on cells (cancer cell lines with endogenous PTK7; HEK293T-PTK7 over-expressing cells) (human) (UniProt Q13308); test: flow cytometry, H358 cells, 10 µg/ml Ab
# [6] = target: human PTK7 expressed on cells (cancer cell lines with endogenous PTK7; HEK293T-PTK7 over-expressing cells) (human) (UniProt Q13308); test: flow cytometry, H446 cells, 10 µg/ml Ab
# [7] = target: human PTK7 expressed on cells (cancer cell lines with endogenous PTK7; HEK293T-PTK7 over-expressing cells) (human) (UniProt Q13308); test: flow cytometry, H520 cells, 10 µg/ml Ab
# [8] = target: human PTK7 expressed on cells (cancer cell lines with endogenous PTK7; HEK293T-PTK7 over-expressing cells) (human) (UniProt Q13308); test: flow cytometry, H522 cells, 10 µg/ml Ab
# [9] = target: human PTK7 expressed on cells (cancer cell lines with endogenous PTK7; HEK293T-PTK7 over-expressing cells) (human) (UniProt Q13308); test: flow cytometry, H526 cells, 10 µg/ml Ab
# [10] = target: human PTK7 expressed on cells (cancer cell lines with endogenous PTK7; HEK293T-PTK7 over-expressing cells) (human) (UniProt Q13308); test: flow cytometry, H596 cells, 10 µg/ml Ab
# [11] = target: human PTK7 expressed on cells (cancer cell lines with endogenous PTK7; HEK293T-PTK7 over-expressing cells) (human) (UniProt Q13308); test: flow cytometry, HL60 cells, 10 µg/ml Ab
# [12] = target: human PTK7 expressed on cells (cancer cell lines with endogenous PTK7; HEK293T-PTK7 over-expressing cells) (human) (UniProt Q13308); test: flow cytometry, TF1a cells, 10 µg/ml Ab
# [13] = target: human PTK7 expressed on cells (cancer cell lines with endogenous PTK7; HEK293T-PTK7 over-expressing cells) (human) (UniProt Q13308); test: flow cytometry, U937 cells, 10 µg/ml Ab
# [14] = target: human PTK7 expressed on cells (cancer cell lines with endogenous PTK7; HEK293T-PTK7 over-expressing cells) (human) (UniProt Q13308); test: flow cytometry, DMS79 cells, 10 µg/ml Ab
# [15] = target: human PTK7 expressed on cells (cancer cell lines with endogenous PTK7; HEK293T-PTK7 over-expressing cells) (human) (UniProt Q13308); test: flow cytometry, H1048 cells, 10 µg/ml Ab
# [16] = target: human PTK7 expressed on cells (cancer cell lines with endogenous PTK7; HEK293T-PTK7 over-expressing cells) (human) (UniProt Q13308); test: flow cytometry, HCC70 cells, 10 µg/ml Ab
# [17] = target: human PTK7 expressed on cells (cancer cell lines with endogenous PTK7; HEK293T-PTK7 over-expressing cells) (human) (UniProt Q13308); test: flow cytometry, MV411 cells, 10 µg/ml Ab
# [18] = target: human PTK7 expressed on cells (cancer cell lines with endogenous PTK7; HEK293T-PTK7 over-expressing cells) (human) (UniProt Q13308); test: flow cytometry, THP-1 cells, 10 µg/ml Ab
# [19] = target: human PTK7 expressed on cells (cancer cell lines with endogenous PTK7; HEK293T-PTK7 over-expressing cells) (human) (UniProt Q13308); test: flow cytometry, BT-549 cells, 10 µg/ml Ab
# [20] = target: human PTK7 expressed on cells (cancer cell lines with endogenous PTK7; HEK293T-PTK7 over-expressing cells) (human) (UniProt Q13308); test: flow cytometry, DMS114 cells, 10 µg/ml Ab
# [21] = target: human PTK7 expressed on cells (cancer cell lines with endogenous PTK7; HEK293T-PTK7 over-expressing cells) (human) (UniProt Q13308); test: flow cytometry, DU4475 cells, 10 µg/ml Ab
# [22] = target: human PTK7 expressed on cells (cancer cell lines with endogenous PTK7; HEK293T-PTK7 over-expressing cells) (human) (UniProt Q13308); test: flow cytometry, Hs700T cells, 10 µg/ml Ab
# [23] = target: human PTK7 expressed on cells (cancer cell lines with endogenous PTK7; HEK293T-PTK7 over-expressing cells) (human) (UniProt Q13308); test: flow cytometry, HCC1806 cells, 10 µg/ml Ab
# [24] = target: human PTK7 expressed on cells (cancer cell lines with endogenous PTK7; HEK293T-PTK7 over-expressing cells) (human) (UniProt Q13308); test: flow cytometry, HEL92.1 cells, 10 µg/ml Ab
# [25] = target: human PTK7 expressed on cells (cancer cell lines with endogenous PTK7; HEK293T-PTK7 over-expressing cells) (human) (UniProt Q13308); test: flow cytometry, HL60 MX2 cells, 10 µg/ml Ab
# [26] = target: human PTK7 expressed on cells (cancer cell lines with endogenous PTK7; HEK293T-PTK7 over-expressing cells) (human) (UniProt Q13308); test: flow cytometry, Kasumi-1 cells, 10 µg/ml Ab
# [27] = target: human PTK7 expressed on cells (cancer cell lines with endogenous PTK7; HEK293T-PTK7 over-expressing cells) (human) (UniProt Q13308); test: flow cytometry, MDAMB436 cells, 10 µg/ml Ab
# [28] = target: human PTK7 expressed on cells (cancer cell lines with endogenous PTK7; HEK293T-PTK7 over-expressing cells) (human) (UniProt Q13308); test: flow cytometry, MDAMB361-DYT2 cells, 10 µg/ml Ab
# Sequence of human PTK7 expressed on cells (cancer cell lines with endogenous PTK7; HEK293T-PTK7 over-expressing cells) (human) (Q13308 31-1070 L93P limits assumed): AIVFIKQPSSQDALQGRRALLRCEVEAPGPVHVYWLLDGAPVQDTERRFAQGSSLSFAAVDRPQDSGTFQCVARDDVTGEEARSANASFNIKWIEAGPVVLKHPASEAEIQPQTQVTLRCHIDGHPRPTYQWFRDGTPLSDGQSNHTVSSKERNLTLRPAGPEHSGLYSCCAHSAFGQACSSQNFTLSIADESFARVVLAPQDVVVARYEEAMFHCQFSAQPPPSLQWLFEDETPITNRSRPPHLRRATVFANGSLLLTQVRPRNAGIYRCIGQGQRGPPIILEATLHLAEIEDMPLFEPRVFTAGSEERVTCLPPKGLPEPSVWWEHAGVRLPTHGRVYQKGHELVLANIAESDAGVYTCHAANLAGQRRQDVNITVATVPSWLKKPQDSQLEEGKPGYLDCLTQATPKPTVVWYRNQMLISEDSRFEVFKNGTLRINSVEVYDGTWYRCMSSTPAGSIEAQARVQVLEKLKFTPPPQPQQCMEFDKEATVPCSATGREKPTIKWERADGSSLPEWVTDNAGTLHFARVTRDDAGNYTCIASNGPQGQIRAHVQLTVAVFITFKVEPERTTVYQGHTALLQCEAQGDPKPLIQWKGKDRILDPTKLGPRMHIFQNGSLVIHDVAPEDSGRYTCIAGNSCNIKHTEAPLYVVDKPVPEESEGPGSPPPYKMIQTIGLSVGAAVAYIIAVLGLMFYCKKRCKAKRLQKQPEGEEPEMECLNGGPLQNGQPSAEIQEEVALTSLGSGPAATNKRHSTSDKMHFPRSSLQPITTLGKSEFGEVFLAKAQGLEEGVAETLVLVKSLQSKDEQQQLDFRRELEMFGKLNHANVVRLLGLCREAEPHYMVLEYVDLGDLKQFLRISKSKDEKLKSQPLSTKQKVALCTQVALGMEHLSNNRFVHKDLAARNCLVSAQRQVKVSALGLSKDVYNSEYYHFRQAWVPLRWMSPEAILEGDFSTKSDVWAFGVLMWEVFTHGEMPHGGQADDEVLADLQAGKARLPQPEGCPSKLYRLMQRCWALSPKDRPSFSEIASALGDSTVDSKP
substance,measurement,setting,value
Negative Control Ab (Table 8) (antibody),Mean Fluorescent Intensity,[1],29.8
same,Mean Fluorescent Intensity,[2],11.2
same,Mean Fluorescent Intensity,[3],5.2
same,Mean Fluorescent Intensity,[4],6.8
same,Mean Fluorescent Intensity,[5],4.5
same,Mean Fluorescent Intensity,[6],7.1
same,Mean Fluorescent Intensity,[7],4.8
same,Mean Fluorescent Intensity,[8],3.8
same,Mean Fluorescent Intensity,[9],12.2
same,Mean Fluorescent Intensity,[10],21.4
same,Mean Fluorescent Intensity,[11],10.9
same,Mean Fluorescent Intensity,[12],6.2
same,Mean Fluorescent Intensity,[13],5
same,Mean Fluorescent Intensity,[14],8.5
same,Mean Fluorescent Intensity,[15],4.4
same,Mean Fluorescent Intensity,[16],9.4
same,Mean Fluorescent Intensity,[17],7.7
same,Mean Fluorescent Intensity,[18],4
same,Mean Fluorescent Intensity,[19],3.6
same,Mean Fluorescent Intensity,[20],9.9
same,Mean Fluorescent Intensity,[21],3.8
same,Mean Fluorescent Intensity,[22],4.9
same,Mean Fluorescent Intensity,[23],4.6
same,Mean Fluorescent Intensity,[24],7.7
same,Mean Fluorescent Intensity,[25],25.2
same,Mean Fluorescent Intensity,[26],5.3
same,Mean Fluorescent Intensity,[27],3.5
same,Mean Fluorescent Intensity,[28],8.7
